Assay results taken from paper PMC5397184 (Nucleic Acids Research, 2017).
Changes are numbered by the printed parent chain. Names may count otherwise.

B1: E. coli Hda (full-length, wild type) (natural protein)
chain: MNTPAQLSLPLYLPDDETFASFWPGDNSSLLAALQNVLRQEHSGYIYLWAREGAGRSHLLHAACAELSQRGDAVGYVPLDKRTWFVPEVLDGMEHLSLVCIDNIECIAGDELWEMAIFDLYNRILESGKTRLLITGDRPPRQLNLGLPDLASRLDWGQIYKLQPLSDEDKLQALQLRARLRGFELPEDVGRFLLKRLDREMRTLFMTLDQLDRASITAQRKLTIPFVKEILKL
B2: E. coli Hda W156A (natural protein)
chain: B1 chain with W156A
B3: E. coli Hda hook mutant (K81S, W84S, F85S) (natural protein)
chain: B1 chain with K81S, W84S, F85S

Key:
[1] = target: T1, E. coli β sliding clamp (wild type, His-tagged) (E. coli, UniProt P0A988 1-366); experiment: crystal structure
[2] = target: the molecule itself; experiment: crystal structure
[3] = target: T1, E. coli β sliding clamp (wild type, …); experiment: SEC-MALS

T1 sequence (P0A988 whole entry): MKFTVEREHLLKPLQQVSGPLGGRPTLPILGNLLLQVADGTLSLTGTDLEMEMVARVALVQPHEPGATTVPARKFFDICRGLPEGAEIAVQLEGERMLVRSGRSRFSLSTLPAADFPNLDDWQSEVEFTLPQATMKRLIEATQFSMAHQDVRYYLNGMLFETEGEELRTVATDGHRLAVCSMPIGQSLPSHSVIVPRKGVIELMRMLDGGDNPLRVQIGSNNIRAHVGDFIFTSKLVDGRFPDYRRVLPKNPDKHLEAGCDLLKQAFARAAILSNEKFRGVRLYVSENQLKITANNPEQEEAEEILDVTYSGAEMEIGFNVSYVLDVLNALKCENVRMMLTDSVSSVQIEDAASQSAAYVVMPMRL

Binder | binding result [1] | binding result [2] | binding result [3]
B1 | binds | binds | –
B2 | – | – | binds
B3 | – | – | binds
